Measured values published in patent US20090317330A2, “DIAGNOSIS AND TREATMENT OF DISEASES INVOLVING PLATELET ACTIVATION” (Baker IDI Heart and Diabetes Institute Holdings Limited, priority 2007, published 2009).

B1: LT-α: rat-recombinant lymphotoxin-α microinjected into the striatum (protein, UniProt Q06332 34-202, looked up)
Lymphotoxin-alpha: LSGVRFSASRTAHQPPQKHLTHGLLKPAAHLVGYPSKQNSLLWRANTDRAFLRHGFSLNNNSLLIPTSGLYFVYSQVVFSGESCSPRAIPTPIYLAHEVQLFSSQYPFHVPLLSAQKSVYPGLQGPWVRSMYQGAVFLLSKGDQLSTHTDGISHLHFSPSTVFFGAFAL
B2: IL-1β: rat-recombinant interleukin-1β microinjected into the striatum (protein, UniProt Q63264 117-268, looked up)
Interleukin-1 beta: VPIRQLHCRLRDEQQKCLVLSDPCELKALHLNGQNISQQVVFSMSFVQGETSNDKIPVALGLKGLNLYLSCVMKDGTPTLQLESVDPKQYPKKKMEKRFVFNKIEVKTKVEFESAQFPNWYISTSQAEHRPVFLGNSNGRDIVDFTMEPVSS

Test system: platelet adhesion to brain endothelium
Assay: Platelet and leukocyte immunohistochemistry after intrastriatal cytokine microinjection (rat)
Format: in vivo
Settings: versus vehicle, TNF at 24 h
Experimental: Rat-recombinant TNF and IL-1[…] were obtained from the National Institute for Biological Standards and Controls (NIBSC, Potters Bar, UK). Rat-recombinant LT-[…] and mouse-recombinant TNF was purchased from R&D Systems (Abingdon, UK). The cytokines were dissolved in endotoxin-free saline (vehicle). The cytokines contained a maximum of 100 IU endotoxin/mg cytokine (corresponding to 10 ppm by weight), which, in view of previous studies, was considered negligible in the context of these experiments.
12-week-old male Wistar rats or 8-week-old NMRI mice were used for the injection of the recombinant cytokines (Charles River, Margate, UK). Both rats and mice responded to the injection of cytokines in an identical manner. […]
Frozen, 10 μm-thick serial coronal sections were cut from tissue blocks. […] The numbers of positive cells present in the brain were quantitated. For each tissue section, 4 representative fields were chosen and the average number of positive cells was calculated and expressed as number of cells per mm^2.
The p55 mouse anti-rat platelet GPIIa monoclonal antibody was a kind gift from Kirin Brewery Co Ltd, Takasaki, Japan. The numbers of platelet positive elements present in the brain were quantitated. For each tissue section, 6 representative fields were chosen and the average number of positive elements was calculated and expressed as number of discrete elements per mm^2.

Molecule | number of platelet positive elements
B1 | did not increase
B2 | did not increase
